Measurements published in patent US10357549B2, “Pigment epithelium-derived factor (PEDF) and peptide derivatives thereof for use in osteoblast differentiation and bone growth” (Yale University, priority 2014, dated 2019).

Experiments:
[1] = tested on: Wnt cell surface receptor LRP6; experiment: Canonical Wnt-β-catenin signaling in hMSCs (immunoblot of phospho-LRP6 and active β-catenin); format: cell-based, human; conditions: for LRP6 phosphorylation: hMSCs, Wnt3a 50 ng/ml, PEDF 500 ng/ml
Method: The inhibitor of Wnt production (IWP-2; Tocris Bioscience, Minneapolis, Minn., USA; 2 μM×24-48 h) was used to block production of endogenous Wnt proteins (Chen et al., 2009, Nat Chem Biol, 5: 100-107; Clevers et al., 2012, Cell, 149: 1192-1205). All other chemicals, unless indicated, were purchased from Sigma (St. Louis, Mo., USA).
(§1) Adipose-derived hMSCs [American Type Culture Collection (ATCC), Manasses, Va., USA; PCS-500-011) were propagated in MSC basal medium supplemented with MSC growth kit (ATCC). Cells were CD29, CD44, CD105, and CD166 positive and negative for CD 31, CD34, and CD45. Interrogation of Wnt-β-catenin signaling was done in ATCC MSC basal medium with 2% FBS. PEDF (500 ng/ml) was added for 6 h. Passage 2 and 3 hMSCs were used for Wnt signaling experiments. For adipocyte conversion, cells (5000 cells/cm^2) were placed in adipocyte differentiation medium (ATCC; PCS-500-050) for 9-10 d. For osteoblast differentiation, cells (5000 cells/cm^2) were differentiated in osteoblast differentiation medium (ATCC; PCS-500-052) for 10-21 d. Alkaline phosphatase kit (Sigma) was used to stain osteoblasts.
(§2) Immunoblotting was performed as described previously (Schmitz et al., 2011, Am J Pathol, 179: 2990-2999). Proteins were separated by 10% SDS-PAGE on gradient gels (Bio-Rad, Hercules, Calif., USA). Antibodies against nonphosphorylated β-catenin, total β-catenin, phospho-LRP6 (serine 1490), total LRP6 (Cell Signaling Technologies, Danvers, Mass., USA), and alkaline phosphatase (Developmental Studies Hybridoma Bank, University of Iowa, Iowa City, Iowa, USA). To assess signaling through the Wnt coreceptor LRP6, 3T3 adipocyte precursors with vector and LRP6-KO shRNA were used (Liu et al., 2012, J Biol Chem, 287: 7213-7223). On confluence, cells were serum starved for 48 h, and then changed to DMEM with 10% FCS (d 0). PEDF (10 nM) was added on d 0, and cells were harvested after 48 h. Knockdown was confirmed by immunoblotting for total LRP6. β-actin (Sigma) was used as a loading control.

SVCs from PEDF KO mice = experiment: Osteoblast differentiation and mineralization of PEDF KO SVCs (Alizarin Red, qRT-PCR); format: cell-based, mouse
Method: (§3) Subcutaneous fat pads were dissected from WT and PEDF-KO mice and digested in HBSS medium containing 3% BSA (American Bioanalytical, Natick, Mass., USA), 0.8 mg/ml of type 2 collagenase (Worthington Biochemical Corp., Lakewood, N.J., USA), 1.2 mM CaCl2, and 1.0 mM MgCl2 for 1 h and 15 min in a shaking 37° C. water bath. Stromovascular fractions (SVFs) were obtained after centrifugation at 300 g for 5 min. Cells were initially plated in proliferation medium (DMEM plus 10% FBS and bFGF; 1 ng/ml) until 70-80% confluence. Adipogenic differentiation was initiated with differentiation medium (5 μg/ml insulin, 10 nM dexamethasone, 0.5 mM IBMX, and 1 μM rosiglitazone) and added on d 0 for 72 h. Afterward, cells were maintained in DMEM with 10% FBS and 5 μg/ml insulin for an additional 5 d until full differentiation as confirmed by light microscopy and Oil Red O staining. Osteoblast differentiation cocktail (10 nM dexamethasone, 50 μg/ml ascorbic acid, and 10 mM β-glycerophosphate) was used for 21 d.
(§4) RNA was isolated and processed using the RNAEasy mini kit (Qiagen, Valencia, Calif., USA). Primer probe sets were obtained from a commercial source (Applied Biosystems, Foster City, Calif., USA), and qRT-PCR was performed on a TaqMan ABI 7500 system (Applied Biosystems) as described previously (Schmitz et al., 2011, Am J Pathol, 179: 2990-2999). Target gene expression was normalized against 18S ribosomal RNA using the ΔΔCt method. On sorted adipose populations, qRT-PCR was performed on a Roche Lightcycler 480 (Roche, Basel, Switzerland) using a SYBR FAST qPCR kit (Kapa Biosystems, Woburn, Mass., USA; KK4611), and target gene expression was normalized to TBK1.
(§5) For Oil Red O staining, cells were washed in PBS and fixed in 10% formalin for 20 min. Cells were then stained with 0.5% Oil Red O for 15 min. For Alizarin Red staining, cells were washed in PBS and fixed in 10% formalin for 20 min. After being washed twice in ddH2O, cells were stained in 2% Alizarin Red S (pH 4.1). Cells were washed ≥3 times in ddH2O, and images were acquired with a Zeiss Axiophot microscope (Carl Zeiss, Oberkochen, Germany). Representative images are shown at ×40 view.

[2] = tested on: MSCs derived from stromovascular cells (SVCs); experiment: Adipogenic differentiation of murine MSCs derived from stromovascular cells (Oil Red O, qRT-PCR); format: cell-based, mouse
Method: as §3, §4, §5

hMSCs [3] = experiment: Adipogenic differentiation of human MSCs; format: cell-based; conditions: PEDF started on day 0, adipogenic medium 10 days
Method: as §1
RNA was isolated and processed using the RNAEasy mini kit (Qiagen, Valencia, Calif., USA). Primer probe sets were obtained from a commercial source (Applied Biosystems, Foster City, Calif., USA), and qRT-PCR was performed on a TaqMan ABI 7500 system (Applied Biosystems) as described previously (Schmitz et al., 2011, Am J Pathol, 179: 2990-2999). Target gene expression was normalized against 18S ribosomal RNA using the ΔΔCt method. […]

hMSCs [4] = experiment: Osteoblast differentiation of hMSCs (alkaline phosphatase); format: cell-based, human; conditions: PEDF added to hMSCs
Method: as §1
Immunoblotting was performed as described previously (Schmitz et al., 2011, Am J Pathol, 179: 2990-2999). Proteins were separated by 10% SDS-PAGE on gradient gels (Bio-Rad, Hercules, Calif., USA). Antibodies against nonphosphorylated β-catenin, total β-catenin, phospho-LRP6 (serine 1490), total LRP6 (Cell Signaling Technologies, Danvers, Mass., USA), and alkaline phosphatase (Developmental Studies Hybridoma Bank, University of Iowa, Iowa City, Iowa, USA). […]

femurs in PEDF KO mice = experiment: Biomechanical testing of femurs of vehicle and PEDF treated PEDF KO mice; format: in vivo, mouse; conditions: versus vehicle
From the text: Further experiments were done to compare the biomechanical properties of PEDF-treated and vehicle-treated bones. […] Femur length was not different between vehicle or PEDF-treated groups. PEDF increased bone stiffness, the slope of the load applied to the bone vs displacement of bone. Maximum load was not different in PEDF-treated mice. The deformation of bone after the yield point, a measure of bone ductility increased after PEDF treatment. Displacement of femurs at maximum load and at fracture (Fx) point increased after PEDF treatment, indicating bones that are less brittle with force applied.

[5] = tested on: 3T3-L1 adipocyte precursors; experiment: PPARγ expression in 3T3-L1 adipocyte precursors with vector or LRP6 shRNA; format: cell-based, mouse; conditions: PEDF 10 nM, 48 h
Method: as §2

PEDF knock-out mice = experiment: PEDF i.p. treatment of young and old PEDF KO mice, trabecular bone; format: in vivo, mouse; conditions: young (200 ng i.p. every third day, two weeks) and old (25 μg/kg i.p. every third day, 4 weeks) PEDF KO mice
From the text: A ScanCo μCT 35 scanner (ScanCo Medical AG, Brüttisellen, Switzerland; Yale Center Core for Musculoskeletal Disorders) was used to assess the distal femur for trabecular and cortical bone morphology from 21-d-old WT and PEDF-KO mice in a blinded manner. Axial, sagittal, and coronal images were obtained at standardized sites, and measures of trabecular and total bone volumes and other parameters of bone density were obtained (Bouxsein et al., 2010, J Bone Miner Res, 25: 1468-1486). For histology, femurs and tibiae of 14- and 26-d-old mice were dissected, cleaned, and fixed in 70% ethanol, then further dehydrated through graded ethanols, cleared in toluene, and embedded in methyl methacrylate (MMA). After polymerization, MMA blocks were removed from the mold, cut to size, sanded, and polished on a Buehler Metasery (Buehler, Lake Bluff, Ill., USA). Longitudinal sections of […] were cut using a Reichert-Jung RM 2165 microtome (Leica Microsystems, Jena, Germany) using a D-profile tungsten carbide knife, mounted on charged slides, and stained with either Goldner's trichrome or Toluidine Blue O (pH 3.7).
Experiments were conducted to examine the effects of PEDF treatment on bone in young (44 days) and old (6 month) PEDF knock-out mice. PEDF (200 ng) was delivered i.p. every third day for two weeks in young mice. […]

β-catenin = experiment: Active β-catenin and mature osteoblast gene expression in hMSC cultures with Wnt3a and PEDF peptides; format: cell-based, human; conditions: 50 ng/ml Wnt3a alone
Method: Experiments were conducted to evaluate the effect of Wnt3a and PEDF-derived peptides on β-catenin, a transcriptional regulator of osteoblast differentiation. Cultures incubated in 50 ng/ml Wnt3a alone or in combination with 100 nM PEDF-derived peptides.

hMSCs [6] = experiment: Mineralization of hMSCs under continuous Wnt3a (Alizarin red, 21 days); format: cell-based, human; conditions: Wnt3a 50 ng/ml continuous, 21-day-old hMSC cultures
Method: Experiments were conducted to evaluate the effect of PEDF-derived peptides on the mineralization of hMSCs. […] For “late” groups, PEDF 34-mer was added only during the last 8 days of the differentiation protocol. Mineralization was assessed by Alizarin red staining (FIG. 14C).

[7] = osteoblast differentiation, KO SVCs, day 21
[8] = PEDF started on day 3, both WT and KO SVCs
[9] = PEDF 500 ng/ml added to IWP-2-treated hMSCs

Cc1ccc2nc(NC(=O)CSc3nc4c(c(=O)n3-c3ccccc3)SCC4)sc2c1 [IWP-2, reference compound]
LRP6 phosphorylation (endogenous Wnt production) ([1]; IWP-2 2 μM incubation 48 h alone): near absence of LRP6 phosphorylation

B1: Pigment epithelium-derived factor (protein)
chain: QNPASPPEEGSPDPDSTGALVEEEDPFFKVPVNKLAAAVSNFGYDLYRVRSSTSPTTNVLLSPLSVATALSALSLGAEQRTESIIHRALYYDLISSPDIHGTYKELLDTVTAPQKNLKSASRIVFEKKLRIKSSFVAPLEKSYGTRPRVLTGNPRLDLQEINNWVQAQMKGKLARSTKEIPDEISILLLGVAHFKGQWVTKFDSRKTSLEDFYLDEERTVRVPMMSDPKAVLRYGLDSDLSCKIAQLPLTGSMSIIFFLPLKVTQNLTLIEESLTSEFIHDIDRELKTVQAVLTVPKLKLSYEGEVTKSLQEMKLQSLFDSPDFSKITGKPIKLTQVEHRAGFEWNEDGAGTTPSPGLQPAHLTFPLDYHLNQPFIFVLRDTDTGALLFIGKILDPRGP
notes: Full-length recombinant human PEDF generated in HEK cells; 50-kDa secreted protein of the SERPIN superfamily
Alizarin Red staining (mineralization) (SVCs from PEDF KO mice; PEDF treatment for 21 days, KO SVCs, versus vehicle-treated cells): increased Alizarin Red staining | Collagen Ia expression (SVCs from PEDF KO mice; day 21 of differentiation): not different | Runx2 expression (SVCs from PEDF KO mice; day 21 of differentiation): did not affect | Sp7 expression (SVCs from PEDF KO mice; day 21 of differentiation): did not affect | reduction of PPARγ expression (SVCs from PEDF KO mice; [7]): ~80% | transforming growth factor β (TGF-β) expression (SVCs from PEDF KO mice; [7]): reduced the expression | PPARγ suppression, day 1 versus day 3 start ([2]; PEDF 500 ng/ml): greater when PEDF was started on day 1 compared with day 3 | adipogenesis (Oil Red O staining) ([2]; PEDF 500 ng/ml added on day 1 or day 3, assessed day 8): significantly inhibited adipogenesis | expression of PPARγ, PGC1α, CEBPα and adipocyte marker ADIPOQ ([2]; PEDF 500 ng/ml started on day 1 or day 3): suppression | inhibition of PGC1α expression [2, 8]: ~50% | inhibition of PPARγ expression [2, 8]: ~50% | suppression of PPARγ, adiponectin, and other adipocyte markers ([2]; compared with control-treated cells, P<0.001): ~90% | adipogenesis of hMSCs (hMSCs [3]): inhibits adipogenesis | proadipogenic transcription factors in hMSCs (hMSCs [3]): inhibited proadipogenic transcription factors | LRP6 phosphorylation in IWP-2-treated cells [1, 9]: led to LRP6 phosphorylation | active β-catenin in IWP-2-treated cells [1, 9]: enhanced levels of active β-catenin | LRP6 phosphorylation [1]: increased LRP6 phosphorylation | active β-catenin levels ([1]; medium conditions where endogenous Wnt proteins would be present): only minimal effects | alkaline phosphatase by staining and protein levels (hMSCs [4]): increased alkaline phosphatase | bone stiffness (slope of load vs displacement) (femurs in PEDF KO mice): increased | deformation of bone after the yield point (bone ductility) (femurs in PEDF KO mice): increased | displacement of femurs at fracture (Fx) point (femurs in PEDF KO mice): increased | displacement of femurs at maximum load (femurs in PEDF KO mice): increased | femur length (femurs in PEDF KO mice): not different | flexibility of femurs (femurs in PEDF KO mice): enhances the flexibility | maximum load (femurs in PEDF KO mice): not different | PPARγ expression in cells with LRP6 knockdown [5]: induced PPARγ expression | PPARγ expression in control (vector) cells [5]: significantly inhibited PPARγ expression | trabecular bone volume (BV) (PEDF knock-out mice): increases | trabecular thickness (PEDF knock-out mice): increases

B2: Wnt3a (protein, UniProt P56704 19-352, looked up)
Protein Wnt-3a: SYPIWWSLAVGPQYSSLGSQPILCASIPGLVPKQLRFCRNYVEIMPSVAEGIKIGIQECQHQFRGRRWNCTTVHDSLAIFGPVLDKATRESAFVHAIASAGVAFAVTRSCAEGTAAICGCSSRHQGSPGKGWKWGGCSEDIEFGGMVSREFADARENRPDARSAMNRHNNEAGRQAIASHMHLKCKCHGLSGSCEVKTCWWSQPDFRAIGDFLKDKYDSASEMVVEKHRESRGWVETLRPRYTYFKVPTERDLVYYEASPNFCEPNPETGSFGTRDRTCNVSSHGIDGCDLLCCGRGHNARAERRREKCRCVFHWCCYVSCQECTRVYDVHTCK
notes: prototypical Wnt agonist ligand
active β-catenin under unopposed and continuous Wnt3a (β-catenin): suppresses active β-catenin | LRP6 phosphorylation [1]: increased LRP6 phosphorylation | mineralization (Alizarin red) with continuous Wnt3a versus controls (hMSCs [6]): diminished mineralization
